The target of assay [1] is MDM2 SWIB domain from Anguilla anguilla (European eel) (Anguilla anguilla (European eel)). The assay is described as follows: fluorescence polarisation; displacement: complex of MDM2 (0.2-2 μM) and FITC-p53TAD_(human)^15–26 (15 nM) displaced by increasing unlabeled p53TAD peptide or p53TAD^full-length; KD calculated from IC50 (Nikolovska-Coleska et al. 2004); 20 mM sodium phosphate pH 7.4, 150 mM NaCl, 1 mM TCEP.

Assay [2] addresses MDM2 SWIB domain from Channa argus (Channa argus). The description is as above.
The target in assay [3] is MDM2 SWIB domain from Clupea harengus (Atlantic herring) (Clupea harengus (Atlantic herring)). The assay is described as above.
For assay [4], the target named is MDM2 SWIB domain from Lepisosteus oculatus (spotted gar) (Lepisosteus oculatus (spotted gar)). The description is as above.
The target in assay [5] is MDM2 SWIB domain from Maylandia zebra (Maylandia zebra). The description is as above.
Assay [6] has as its target MDM2 SWIB domain from Oncorhynchus kisutch (coho salmon) (Oncorhynchus kisutch (coho salmon)). Described as above.
Assay [7] has as its target MDM2_(D.rerio) SWIB domain (Danio rerio (zebrafish)). Described as above.
Assay [8] concerns the target MDM2 SWIB (Homo sapiens) (UniProt Q00987). The note with it: cited from earlier work.
Assay [9] addresses MDM2_(D.rerio) SWIB domain (Danio rerio (zebrafish)). The assay is described as follows: ITC; MicroCal iTC200, 25 °C; D. rerio MDM2 11 μM in the cell, p53TAD 118 or 116 μM in the syringe; 20 mM sodium phosphate pH 7.4, 150 mM NaCl, 1 mM TCEP.
In assay [10] the target is MDM2_(D.rerio) SWIB domain. The assay is described as follows: fluorescence polarization competition assay.
Assay [11] has as its target MDM2 SWIB domain from Takifugu rubripes (Japanese puffer) (Takifugu rubripes (Japanese puffer)). Nature of the assay: fluorescence polarisation; displacement: complex of MDM2 (0.2-2 μM) and FITC-p53TAD_(human)^15–26 (15 nM) displaced by increasing unlabeled p53TAD peptide or p53TAD^full-length; KD calculated from IC50 (Nikolovska-Coleska et al. 2004); 20 mM sodium phosphate pH 7.4, 150 mM NaCl, 1 mM TCEP.

Broadly, the Kd is the free concentration of one partner at which half of the binding sites on the other are occupied at equilibrium, for simple one-to-one binding. With “Anguilla anguilla (European eel) p53TADP1 p53TAD^full-length (domain or fragment)”, in assay [1], the dissociation constant Kd was 230 nM.
On the same count and under the same terms, under “Anguilla anguilla p53TADP2 p53TAD^full-length (domain or fragment)” stands 60 nM.
In the case of “Channa argus p53TADP1 p53TAD^full-length (domain or fragment)”, the dissociation constant (Kd) in assay [2] is 100 nM.
As to “Clupea harengus (Atlantic herring) p53TADP1 p53TAD^full-length (domain or fragment)”, the Kd in [3] is 190 nM.
Still for that read-out and setting: under “Clupea harengus p53TADP2 p53TAD^15–27 (peptide)” stands 600 nM.
Regarding “Clupea harengus p53TADP2 p53TAD^full-length (domain or fragment)”, in assay [3], the Kd was 40 nM.
In the case of “Lepisosteus oculatus (spotted gar) p53TAD^full-length (domain or fragment)”, the Kd in [4] is 85 nM.
Turning to “Maylandia zebra p53TADP1 p53TAD^full-length (domain or fragment)”, the Kd in [5] is 190 nM.
Take “Oncorhynchus kisutch (coho salmon) p53TADP1a p53TAD^full-length (domain or fragment)”: in assay [6], the Kd is 48 nM.
On the same count and under the same terms, as for “Oncorhynchus kisutch p53TADP1b p53TAD^full-length (domain or fragment)”, the figure is 60 nM.
The same measure, in the same setting: under “Oncorhynchus kisutch p53TADP2 p53TAD^full-length (domain or fragment)” stands 70 nM.
Consider “alternative p53TAD^17–32_(D.rerio) (P79734) (peptide)”, for which the Kd in assay [7] is 580 nM.
As for p53 TAD (from UniProt P04637), the dissociation constant Kd in [8] was 100 nM.
Turning to p53TAD^17–32_(D.rerio) (peptide), the results for the Kd in assay [7] and in assay [9] were 180 nM and 300 nM, respectively.
In assay [10], p53TAD^17–32_(D.rerio) I28A displayed a Kd of 460 nM.
“p53TAD_(D.rerio)^full-length (domain or fragment)”: the dissociation constant Kd in [7] is 49 nM; in [9], 100 nM.
Take p53TAD_(H.sapiens)^15–27 (peptide): the dissociation constant (Kd) in [3] is 1800 nM; in assay [6], 780 nM; in [11] it was 1100 nM; in assay [1] it was 900 nM; in [4], 370 nM; in assay [2], 2100 nM. Moreover, the equilibrium dissociation constant (Kd) in assay [5] was 1700 nM.
